Measurements published in US20220235126A1.

Assays:
human FcRn-mmh (human) = human FcRn-mmh (human) (UniProt P55899); test: SPR, hFcRn.mmh captured, 25 C, pH 7.4; kinetics inconclusive
[1] = molecular target: hTSLPR and hIL-7R on Baf3 cells (human) (UniProt Q9HC73); test: cell-based or functional assay
[2] = molecular target: hTSLPR and hIL-7R on Baf3 cells (human) (UniProt Q9HC73)
[3] = molecular target: hTSLPR and hIL-7R on Baf3 cells (human) (UniProt Q9HC73); remark: listed apart in the source

Sequence of UniProt Q9HC73 (Q9HC73 23-371, chain 1 of 2): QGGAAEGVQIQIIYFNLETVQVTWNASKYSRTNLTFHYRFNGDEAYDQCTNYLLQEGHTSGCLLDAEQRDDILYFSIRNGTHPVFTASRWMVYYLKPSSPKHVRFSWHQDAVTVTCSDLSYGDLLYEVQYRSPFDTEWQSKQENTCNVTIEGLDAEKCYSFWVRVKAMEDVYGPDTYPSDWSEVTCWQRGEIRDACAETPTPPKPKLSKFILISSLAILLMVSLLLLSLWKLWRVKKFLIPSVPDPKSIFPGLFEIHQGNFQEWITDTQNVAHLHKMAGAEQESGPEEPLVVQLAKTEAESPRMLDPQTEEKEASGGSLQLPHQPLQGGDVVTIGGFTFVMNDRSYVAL
Sequence of UniProt Q9HC73 (P16871 21-459, chain 2 of 2, further chain): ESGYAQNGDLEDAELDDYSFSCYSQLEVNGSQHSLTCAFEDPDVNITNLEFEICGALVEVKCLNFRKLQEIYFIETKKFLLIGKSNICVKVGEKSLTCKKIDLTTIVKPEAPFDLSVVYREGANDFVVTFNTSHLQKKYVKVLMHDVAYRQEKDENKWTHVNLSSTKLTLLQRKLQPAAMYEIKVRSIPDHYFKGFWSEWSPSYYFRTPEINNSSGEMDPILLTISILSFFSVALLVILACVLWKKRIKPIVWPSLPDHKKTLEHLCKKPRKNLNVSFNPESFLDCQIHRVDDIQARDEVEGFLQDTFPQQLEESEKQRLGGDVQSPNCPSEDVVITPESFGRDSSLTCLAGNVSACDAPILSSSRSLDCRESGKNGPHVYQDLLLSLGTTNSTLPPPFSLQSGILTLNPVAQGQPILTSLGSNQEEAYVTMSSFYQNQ
Sequence of UniProt P55899 (P55899 24-297): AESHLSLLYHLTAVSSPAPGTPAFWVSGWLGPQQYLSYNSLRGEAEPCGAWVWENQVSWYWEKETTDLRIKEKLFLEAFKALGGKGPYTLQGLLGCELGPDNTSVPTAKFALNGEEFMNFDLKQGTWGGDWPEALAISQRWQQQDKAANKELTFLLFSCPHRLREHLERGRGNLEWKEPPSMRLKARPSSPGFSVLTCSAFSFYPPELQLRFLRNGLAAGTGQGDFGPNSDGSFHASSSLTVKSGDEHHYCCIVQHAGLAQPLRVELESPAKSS

Work on “REGN1932, anti-FelD1 IgG1 isotype control (antibody)” yielded a 5 uM mAb Bound (RU) (human FcRn-mmh (human)) of 9.1 RU.
“human TSLP (hTSLP) (from UniProt Q969D9 29-159) (ligand)” gave a hTSLP EC50 [M], STAT3-Luciferase reporter assay [1] of 4.35e-11 M.
In the case of “REGN1945, anti-fel d 1 IgG4 isotype control (antibody)”, the 5 uM mAb Bound (RU) (human FcRn-mmh (human)) is reported as 8 RU.
Substance “REGN4009, recombinant hTSLP.mmh (from UniProt Q969D9 29-159) (ligand)” has an EC50, STAT3-luciferase dose response of hTSLP mmh in BAF3/hIL7R/hTSLPR/Stat3-Luc cells [2] of 0.0613 nM and an EC50 of hTSLP mmh in the Stat3-Luc reporter assay (number only, curve not drawn) [3] of 0.075 nM.
